Results: the supplement of paper PMC12042874
± gives the uncertainty stated by the source.

Assay: amyloid nucleation score (Sup35N fusion, yeast selection) (log enrichment); library NNK3; higher = more nucleation; inactive = no reads after selection
In short: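 In psi-negative yeast, Sup35N fusions carrying peptides of 20 random codons were induced with 100 μM copper sulfate for 24 hours. The cells then grew 7 days at 30°C on medium lacking adenine and uracil, and plasmid inserts from input and output were Illumina-sequenced, excluding sequences with under 100 input reads. Nucleation score is the DiMSum log enrichment of output over input reads, centred on the mode score of non-aggregating sequences.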

Substance | amyloid nucleation score
LFVLELVRIWVTYNWCSVSF | inactive
LFYAVSFQRYQANVFVVRGD | inactive
LGFLNWSRQGGV | 0.947 ± 0.25
LGIAPDHMSCSGVNRKCGYS | inactive
LGKPASSTQSMWNSFVYWLP | inactive
LGKRVGCNCICAPRSAGDGI | inactive
LGRKIRFFGYSGWGCMIREY | inactive
LGSCCLLYYYAKTVMNMFSK | inactive
LGSDTPLKCVLSTMRMLRTG | inactive
LGVHWNPFIWVSSDARQNSR | -0.089 ± 0.96
LGVSLKGNYAYWFTLIWSDV | inactive
LGYTQSVTVMRLMSQYKKAG | -0.334 ± 0.55
LHGCTEITKGNYLPNNAVD | inactive
LHGHTWSWSLDWLSYMTAVQ | inactive
LHHFSAIPH | inactive
LHHMHYSLKGS | inactive
LHPCEYALM | -1.4 ± 2.5
LHQCRDKL | inactive
LHVLPEQARTPRVTVPVFSP | -0.339 ± 1.1
LIAFA | 2.53 ± 0.069
LIARALFNSKWQDTSLSL | inactive
LIAYRVGHSGSAQYSSTCGW | 1.04 ± 0.13
LICIQCWFYDSYHTQQLWGL | 2.16 ± 0.056
LICNCHPRESSDPTFLCGLG | inactive

Substance | amyloid nucleation score
LICVYVWVHCLMNPYHAINR | 0.199 ± 0.16
LIDWTDNRYPYRHHHFCPNA | inactive
LIEWYFDN | inactive
LIFRRCLCNSSCYDLIAGRG | inactive
LIGLMWFVMWFFMARMREIN | inactive
LIIVMFPAVCIVFDFNFTVF | inactive
LILSSCVKGPVSCRPM | inactive
LILVCSSGRAIMKRAPCKFR | inactive
LIMLFHSWMSTRWYGVVSNS | inactive
LINKFRWPTPNECLVPVFQD | inactive
LINVPDGSSSKLSDMV | inactive
LIRQRLDRLVQHFVDFRVFF | inactive
LIVGKNNVPMFTSNKFLVFS | -0.508 ± 0.8
LIWFGGGPSRWSM | -0.117 ± 1.1
LIWQGCV | inactive
LIYTGSAIIINRIWE | 2.17 ± 0.08
LKDAHQWIYLW | -0.779 ± 0.88
LKFFVYLLNLYEDFLPVRFS | inactive
LKGKP | inactive
LKHCQMGVVTSSYLMWLVGT | inactive
LKIWLRSYPYPLTGQKQRPK | inactive
LKQDVKTAVFFFGVD | 1.1 ± 0.15
LKSMLLSMRSIIEYCQQMVG | inactive
LKTTDLLPQVTCPHLCILFL | 0.808 ± 0.23

Substance | amyloid nucleation score
LKWCFFCCN | 2.54 ± 0.065
LKYEERSGWWSLGSGVCGVV | inactive
LLDKVLSEPKTSQDRSENVA | -0.696 ± 1.1
LLEIPNSRDGFHRGSTVGDL | inactive
LLFAYLMRMRISVHIWVRGT | inactive
LLFMYSDMTYTWCIFYGELW | inactive
LLFQMVHLTCVMYLLVSSTL | inactive
LLGSSFFIRLFWTSSSFAAK | inactive
LLGTEIWGCRRISHSGVMRW | -0.009 ± 0.43
LLGWCCSDNPDRRKEY | inactive
LLHFVHNSSSMLVRRREETG | 0.262 ± 0.39
LLHRTWVFNSELPWCRYVLK | inactive
LLIGNY | inactive
LLIKAAFGKMVRCKFRLIEW | -0.454 ± 1.4
LLIRTSLVGEIPLSVSVGCL | inactive
LLLPIS | inactive
LLLWSAIIYK | inactive
LLLYLN | inactive
LLNRDI | inactive
LLNSM | inactive
LLPLFHNVIIGNCLFGCEPP | 1.62 ± 0.11
LLRIPGF | inactive
LLSILTWVSIYRRCFSFTAR | -0.758 ± 0.88
LLTKSLNPYMMGCSSSIMQC | inactive

Substance | amyloid nucleation score
LLTYHTSGYSCWSEG | inactive
LLVAYPHYAGFCTAVSSKSG | inactive
LLVSQLRYYWTATRNKFIF | inactive
LLVTQGVYS | 1.17 ± 0.12
LLYRWVGFHLIKLSVNAWLS | -1.01 ± 2.4
LMGTQVVFDDTDPYTEKGLL | inactive
LMIEGLSDIHVLMAVSPERG | inactive
LMKMKRFLQLWTIGDGASKS | 1.81 ± 0.09
LMLDFSIGRSPGDNAVICRH | inactive
LMLGYLKYLYGAANRICYRS | inactive
LMPCALFSGVYEAGRHGSFL | 0.462 ± 0.34
LMYLTCPPRGDSTFPKVIRQ | inactive
LMYVS | inactive
LNDDLCSRVFWVYEYHECQV | inactive
LNEFIKYLDICKFFSCSGRN | 1.61 ± 0.1
LNFPQMSYP | inactive
LNGRYSLLWR | inactive
LNIIP | inactive
LNILF | 0.826 ± 0.11
LNILIFFCFYGVWKIWKIIS | -0.665 ± 1.3
LNKLEVNDVSIGYVNCTLFK | inactive
LNLQPRVDVVLVLFRTRANK | 0.767 ± 0.25
LNLYRLPLTPSLSASRMIAY | inactive
LNNFMWKHVMGYPYVAWLAF | inactive

Substance | amyloid nucleation score
LNNRA | inactive
LNNTQFL | inactive
LNQGSYYGMARFPL | inactive
LNQVSLLVGNMRWDCDIKSA | inactive
LNSSVYVLLRSILPSVWNQL | inactive
LNVMFSFRYPWFSVFVLMIV | inactive
LNVRAVFIVTRISVSYSRAR | 0.081 ± 0.52
LNYVVTHLYLVLFHVMVSDG | inactive
LPCWKFGLASHR | inactive
LPDEEHVRYVCYLYDM | inactive
LPEMGFFSLVDNWLAVAFSK | 1.46 ± 0.081
LPGNLYFYVTGTCDNYLTVW | inactive
LPHNIVLAKKTLKV | inactive
LPIQVSFVMVRWGSMFMFRN | inactive
LPPFCGSGCLSGLLRSKTRR | 0.617 ± 0.19
LPRLYDFLGLVWVIA | inactive
LPTSFTSFNLKSLASMT | inactive
LPYLKQ | inactive
LPYTVQAVVIRVDKSYVSSV | inactive
LQCLNQVRSRLVVLLLIFNV | inactive
LQEGSN | inactive
LQFNISYRMFSEVCVFLLVW | inactive
LQLRSLF | inactive
